Experimental data published in US20140179604A1 (U S A REPRESENTED BY THE DEPARTMENT OF VETERANS AFFAIRS, published 2014).
Non-standard residues stand in square brackets, D forms with d. No end group written: not given here. *: point of attachment. Desaminotyrosyl = O=C(CCc1ccc(O)cc1)*; NMeY = CN[C@@H](Cc1ccc(O)cc1)C(=O)O; Agmatine = N=C(N)NCCCCN*; Nle = CCCC[C@H](N)C(=O)O; Orn = NCCC[C@H](N)C(=O)O; Abu = CC[C@H](N)C(=O)O; Aoc = NCCCCCCCC(=O)O; Ava = NCCCCC(=O)O

T1: GHRH receptor (membrane receptors of human anterior pituitary cells) (human, UniProt Q02643 23-423)
T1 construct: whole, on cells; Native receptor in a membrane fraction of purchased normal human pituitaries, not intact cells; also called hGHRH receptor; human pituitary membrane homogenates
T1 sequence (looked up): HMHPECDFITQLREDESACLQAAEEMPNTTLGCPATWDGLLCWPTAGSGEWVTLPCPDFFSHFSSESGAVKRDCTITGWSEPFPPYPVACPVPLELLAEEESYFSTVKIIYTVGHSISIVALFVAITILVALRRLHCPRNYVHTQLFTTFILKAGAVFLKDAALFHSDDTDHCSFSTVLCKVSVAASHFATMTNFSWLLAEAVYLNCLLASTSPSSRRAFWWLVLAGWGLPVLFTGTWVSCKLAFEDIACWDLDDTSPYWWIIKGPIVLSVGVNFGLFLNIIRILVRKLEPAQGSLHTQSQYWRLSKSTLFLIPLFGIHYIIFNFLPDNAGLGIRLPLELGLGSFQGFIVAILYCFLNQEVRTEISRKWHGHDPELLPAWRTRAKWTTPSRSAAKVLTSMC


Key:
[1] = target: T1, GHRH receptor (membrane receptors of …); assay: competition with 125I-JV-1-42, human pituitary membranes
From the text: Normal human pituitaries were purchased from the National Hormone and Peptide Program (A. F. Parlow, Los Angeles, County Harbor-UCLA Medical Center, Torrance, Calif.).

[2] = target: T1, GHRH receptor (membrane receptors of …); assay: competition with 125I-[His1,Nle27]hGHRH(1-32)NH2, human pituitary membranes
From the text: Normal human pituitary was purchased from the National Hormone and Peptide Program (UCLA Medical Center, Torrance, Calif.).

Binder | IC50 [1] | Relative affinity (Binding potency) vs JI-38 [1] | IC50 [2] | Relative affinity (Binding potency) compared to JI-38 [2] | Relative affinity (Binding potency) compared to hGHRH(1-29) [2]
[NMeY][dA]DAIFTNSYR[Orn]VL[Abu]QLSAR[Orn]LLQDI[Nle]D[Agmatine] (also called Peptide 20367) [P-20367 [N-Me-Tyr^1, D-Ala^2, Orn^12, Abu^15, Orn^21, Nle^27, Asp^28, Agm^29]hGHRH(1-29)NH2] | 1.7 nM | 2.56 JI-38 = 1 | 1.09 nM | 2.51 JI-38 = 1 | 7.01 hGHRH(1-29)NH2 = 1
[NMeY][dA]DAIFTTSYR[Orn]VL[Abu]QLSAR[Orn]LLQDI[Nle]DR-NHMe (also called MR-410; Peptide 27410) [P-27410 [N-Me-Tyr^1, D-Ala^2, Thr^8, Orn^12, Abu^15, Orn^21, Nle^27, Asp^28]hGHRH(1-29)NH-CH3] | 0.83 nM | 5.24 JI-38 = 1 | 1.28 nM | 2.14 JI-38 = 1 | 5.98 hGHRH(1-29)NH2 = 1
[NMeY][dA]DAIFTNSYR[Orn]VL[Abu]QLSAR[Orn]LLQDI[Nle]DR-NHEt (also called MR-421; Peptide 28421) [P-28421 [N-Me-Tyr^1, D-Ala^2, Orn^12, Abu^15, Orn^21, Nle^27, Asp^28]hGHRH(1-29)NH-CH2-CH3] | 1.47 nM | 2.96 JI-38 = 1 | 3.05 nM | 0.9 JI-38 = 1 | 2.5 hGHRH(1-29)NH2 = 1
[NMeY][dA]DAIFTNSYR[Orn]VL[Abu]QLSAR[Orn]LLQDI[Nle]DR-NHMe (also called MR-409; Peptide 27409) [P-27409 [N-Me-Tyr^1, D-Ala^2, Orn^12, Abu^15, Orn^21, Nle^27, Asp^28]hGHRH(1-29)NH-CH3] | 1.06 nM | 4.1 JI-38 = 1 | 1.01 nM | 2.71 JI-38 = 1 | 7.57 hGHRH(1-29)NH2 = 1
[NMeY][dA]DAIFTQSYR[Orn]VL[Abu]QLSAR[Orn]LLQDI[Nle]DR-NHMe [P-27403 [N-Me-Tyr^1, D-Ala^2, Gln^8, Orn^12, Abu^15, Orn^21, Nle^27, Asp^28]hGHRH(1-29)NH-CH3] | 0.16 nM | 27.2 JI-38 = 1 | 0.74 nM | 3.69 JI-38 = 1 | 10.3 hGHRH(1-29)NH2 = 1
[NMeY][dA]DAIFTQSYR[Orn]VL[Abu]QLSAR[Orn]LLQDI[Nle]DR[Ava]-NH2 (N-terminus assumed; SMILES CCCC[C@H](NC(=O)[C@@H](NC(=O)[C@H](CC(=O)O)NC(=O)[C@H](CCC(N)=O)NC(=O)[C@H](CC(C)C)NC(=O)[C@H](CC(C)C)NC(=O)[C@H](CCCN)NC(=O)[C@H](CCCNC(=N)N)NC(=O)[C@H](C)NC(=O)[C@H](CO)NC(=O)[C@H](CC(C)C)NC(=O)[C@H](CCC(N)=O)NC(=O)[C@H](CC)NC(=O)[C@H](CC(C)C)NC(=O)[C@@H](NC(=O)[C@H](CCCN)NC(=O)[C@H](CCCNC(=N)N)NC(=O)[C@H](Cc1ccc(O)cc1)NC(=O)[C@H](CO)NC(=O)[C@H](CCC(N)=O)NC(=O)[C@@H](NC(=O)[C@H](Cc1ccccc1)NC(=O)[C@@H](NC(=O)[C@H](C)NC(=O)[C@H](CC(=O)O)NC(=O)[C@@H](C)NC(=O)[C@H](Cc1ccc(O)cc1)NC)[C@@H](C)CC)[C@@H](C)O)C(C)C)[C@@H](C)CC)C(=O)N[C@@H](CC(=O)O)C(=O)N[C@@H](CCCNC(=N)N)C(=O)NCCCCC(N)=O, also called MR-326; Peptide 22326) [P-22326 [N-Me-Tyr^1, D-Ala^2, Gln^8, Orn^12, Abu^15, Orn^21, Nle^27, Asp^28, Apa^30]hGHRH(1-30)NH2] | 0.71 nM | 6.12 JI-38 = 1 | 0.98 nM | 2.8 JI-38 = 1 | 7.81 hGHRH(1-29)NH2 = 1
[Desaminotyrosyl][dA]DAIFTNSYR[Orn]VL[Abu]QLSAR[Orn]LLQDI[Nle]DR[Aoc]-NH2 (SMILES CCCC[C@H](NC(=O)[C@@H](NC(=O)[C@H](CC(=O)O)NC(=O)[C@H](CCC(N)=O)NC(=O)[C@H](CC(C)C)NC(=O)[C@H](CC(C)C)NC(=O)[C@H](CCCN)NC(=O)[C@H](CCCNC(=N)N)NC(=O)[C@H](C)NC(=O)[C@H](CO)NC(=O)[C@H](CC(C)C)NC(=O)[C@H](CCC(N)=O)NC(=O)[C@H](CC)NC(=O)[C@H](CC(C)C)NC(=O)[C@@H](NC(=O)[C@H](CCCN)NC(=O)[C@H](CCCNC(=N)N)NC(=O)[C@H](Cc1ccc(O)cc1)NC(=O)[C@H](CO)NC(=O)[C@H](CC(N)=O)NC(=O)[C@@H](NC(=O)[C@H](Cc1ccccc1)NC(=O)[C@@H](NC(=O)[C@H](C)NC(=O)[C@H](CC(=O)O)NC(=O)[C@@H](C)NC(=O)CCc1ccc(O)cc1)[C@@H](C)CC)[C@@H](C)O)C(C)C)[C@@H](C)CC)C(=O)N[C@@H](CC(=O)O)C(=O)N[C@@H](CCCNC(=N)N)C(=O)NCCCCCCCC(N)=O, also called Peptide 21300) [P-21300 [Dat^1, D-Ala^2, Orn^12, Abu^15, Orn^21, Nle^27, Asp^28, Amc^30]hGHRH(1-30)NH2] | 3.61 nM | 1.2 JI-38 = 1 |  |  | 
[NMeY][dA]DAIFTNSYR[Orn]VL[Abu]QLSAR[Orn]LLQDI[Nle]DR[Aoc]-NH2 (N-terminus assumed; SMILES CCCC[C@H](NC(=O)[C@@H](NC(=O)[C@H](CC(=O)O)NC(=O)[C@H](CCC(N)=O)NC(=O)[C@H](CC(C)C)NC(=O)[C@H](CC(C)C)NC(=O)[C@H](CCCN)NC(=O)[C@H](CCCNC(=N)N)NC(=O)[C@H](C)NC(=O)[C@H](CO)NC(=O)[C@H](CC(C)C)NC(=O)[C@H](CCC(N)=O)NC(=O)[C@H](CC)NC(=O)[C@H](CC(C)C)NC(=O)[C@@H](NC(=O)[C@H](CCCN)NC(=O)[C@H](CCCNC(=N)N)NC(=O)[C@H](Cc1ccc(O)cc1)NC(=O)[C@H](CO)NC(=O)[C@H](CC(N)=O)NC(=O)[C@@H](NC(=O)[C@H](Cc1ccccc1)NC(=O)[C@@H](NC(=O)[C@H](C)NC(=O)[C@H](CC(=O)O)NC(=O)[C@@H](C)NC(=O)[C@H](Cc1ccc(O)cc1)NC)[C@@H](C)CC)[C@@H](C)O)C(C)C)[C@@H](C)CC)C(=O)N[C@@H](CC(=O)O)C(=O)N[C@@H](CCCNC(=N)N)C(=O)NCCCCCCCC(N)=O, also called Peptide 21303) [P-21303 [N-Me-Tyr^1, D-Ala^2, Orn^12, Abu^15, Orn^21, Nle^27, Asp^28, Amc^30]hGHRH(1-30)NH2] | 1.87 nM | 2.32 JI-38 = 1 |  |  | 
[Desaminotyrosyl][dA]DAIFTQSYR[Orn]VL[Abu]QLSAR[Orn]LLQDI[Nle]D[dR]-NHMe (SMILES CCCC[C@H](NC(=O)[C@@H](NC(=O)[C@H](CC(=O)O)NC(=O)[C@H](CCC(N)=O)NC(=O)[C@H](CC(C)C)NC(=O)[C@H](CC(C)C)NC(=O)[C@H](CCCN)NC(=O)[C@H](CCCNC(=N)N)NC(=O)[C@H](C)NC(=O)[C@H](CO)NC(=O)[C@H](CC(C)C)NC(=O)[C@H](CCC(N)=O)NC(=O)[C@H](CC)NC(=O)[C@H](CC(C)C)NC(=O)[C@@H](NC(=O)[C@H](CCCN)NC(=O)[C@H](CCCNC(=N)N)NC(=O)[C@H](Cc1ccc(O)cc1)NC(=O)[C@H](CO)NC(=O)[C@H](CCC(N)=O)NC(=O)[C@@H](NC(=O)[C@H](Cc1ccccc1)NC(=O)[C@@H](NC(=O)[C@H](C)NC(=O)[C@H](CC(=O)O)NC(=O)[C@@H](C)NC(=O)CCc1ccc(O)cc1)[C@@H](C)CC)[C@@H](C)O)C(C)C)[C@@H](C)CC)C(=O)N[C@@H](CC(=O)O)C(=O)N[C@H](CCCNC(=N)N)C(=O)NC, also called MR-401) [P-27401 [Dat^1, D-Ala^2, Gln^8, Orn^12, Abu^15, Orn^21, Nle^27, Asp^28, D-Arg^29]hGHRH(1-29)NH-CH3] | 2.74 nM | 1.59 JI-38 = 1 | 2.6 nM | 1.05 JI-38 = 1 | 2.94 hGHRH(1-29)NH2 = 1
